From patent US12281340B2, “Method of producing N-acyl-amino group-containing compound” (AJINOMOTO CO., INC., priority 2018, dated 2025)

B1: PaHP: hypothetical protein from Pantoea agglomerans (PaaK protein), His-tagged (protein)
chain: MRSYDHQPTFVEQHNRISIISGSTFRDYEHFARSVPISKLVRMHEVEGKQGDDSSANLPSLIGATSGTSGKMKPVRIQLKNGGCSVSASERNFIYHLRERRVFFPQDVVGNLFTINLFSTLHQSACDIVKYCQGSIVPVGDIALLTRDHFLFLQEVELSVLFGVPATIIQFVEAMLSNKVPIGIKKIVFTGETLRPSQAEWLRSRLGRTLSIVGLYGLSECGFLGLTDAQDCDEYTLFNDDFFFEQDPVHGLLVTSLDPSAKNRLIRYPTGDGVELTFHNKQLKMRIMARKDLLFNFVGNLISVESIAATVAESIPESFIQLVIRSEKGQQELLLVNVAGKNLQTQQLELIAQKLRARPELAEVYQKQRGRLEVHSVAENAFVLSARGKHQFVVDERE
modifications: His-tag; Pantoea agglomerans
notes: hypothetical protein from Pantoea agglomerans (PaaK protein), His-tagged
B2: PsIAAL: indoleacetate-lysine synthetase from Pseudomonas savastanoi (PaaK protein), His-tagged (protein, listed as Pseudomonas savastanoi)
chain: MTAYDMEKEWSRISITAAKIHQNNDFEGFTYQDFRTHVPIMDKDGFAAQTERCLERNERNCLIGFTSGTSGNIKRCYYYYDCEVDEDSSLSNVFRSNGFILPGDRCANLFTINLFSALNNTITMMAGNCGAHVVSVGDITLVTKSHFEALNSIKLNVLLGVPSTILQFINAMQHNGVHINIEKVVFTGESLKTFQKKIIRQAFGEQVSIVGVYGSSEGGILGFTNSPCHTEYEFLSDKYFIEKEGDSILITSLTRENFTPLLRYRLGDTATLSMKGDKLYLTDIQREDMSFNFMGNLIGLGIIQQTIKQTLGRSLEIQVHLSVTEERKELVTVFVQASEVDEDERVRIETAIADIPDIKEAYQKNQGTVSVLRKDARDYAVSERGKMLYIIDRRN
modifications: His-tag
notes: indoleacetate-lysine synthetase from Pseudomonas savastanoi (PaaK protein), His-tagged

What was measured:
[1] = Synthesis of N-caprinoylamino acid using purified acylamino acid synthetase, UPLC-MS detection; assay type: biochemical; parameters: key: +: Detected; −: Not detected; conditions: +ATP
Procedure: 2.0 mL of a reaction solution containing 50 mM Tris-HCl, 5 mM amino acid, 5 mM sodium caprate, 10 mM ATP, 10 mM MgCl2, 1 mM DTT, 50 μg of the purified enzyme, pH 8.0 was incubated at 25° C. for 24 hours. After completion of the reaction, 0.8 mL of a reaction stop solution (1% (v/v) phosphoric acid, 75% (v/v) methanol) was added, and the mixture was filtrated through a filter followed by being subjected to the UPLC-MS analysis to detect a signal of a molecular weight corresponding to an N-caprinoyl amino acid.
A UPLC-MS analysis condition is as follows.
Apparatus: ACQUITY UPLC (Waters)
• Column: ACQUITY UPLC BEH C18 1.7 2.1×100 mm Column (Waters) • Mobile phase A: 0.1% formic acid • Mobile phase B: acetonitrile Gradient
• Flow rate: 0.6 mL/min • Injection amount: 2 μL • Column temperature: 40° C. • Ionization method: ESI-negative
As a result of the UPLC-MS analysis, the signal of the molecular weight corresponding to the N-caprinoyl amino acid was confirmed in the reaction solution combining the enzyme and the amino acid shown in Table 3 below.

[2] = Synthesis of N-caprinoyl-amino acid derivative, N-caprinoyl-D-amino acid and N-caprinoyl-peptide using purified acylamino acid synthetase, UPLC-MS detection; assay type: biochemical; parameters: key: +: Detected; −: Not detected; conditions: +ATP
Procedure: 0.2 mL of a reaction solution containing 50 mM Tris-HCl, 5 mM amino acid derivative or D-amino acid or peptide, 5 mM sodium caprate, 10 mM ATP, 10 mM MgCl2, 1 mM DTT, 50 μg/mL of the purified enzyme, pH 8.0 was incubated at 25° C. for 24 hours. After completion of the reaction, 0.8 mL of the reaction stop solution (1% (v/v) phosphoric acid, 75% (v/v) methanol) was added, and the mixture was filtrated through the filter followed by being subjected to the UPLC-MS analysis to detect a signal of a molecular weight corresponding to an N-caprinoyl-amino acid derivative, an N-caprinoyl-amino acid or an N-caprinoyl-peptide. A condition for the UPLC-MS analysis is as described in Example 2.
As a result of the UPLC-MS analysis, the signal of the molecular weight corresponding to the N-caprinoyl-amino acid derivative, or N-caprinoyl-amino acid, or N-caprinoyl-peptide was confirmed in the reaction solution containing the enzyme in combination with the amino acid derivative or the D-amino acid or the peptide shown in Table 4 below.

[3] = substrates GABA and sodium caprate
[4] = substrates Gly and sodium caprate
[5] = substrates L-Ala and sodium caprate
[6] = substrates L-Arg and sodium caprate
[7] = substrates L-Asn and sodium caprate
[8] = substrates L-Asp and sodium caprate
[9] = substrates L-Cys and sodium caprate
[10] = substrates L-Gln and sodium caprate
[11] = substrates L-Glu and sodium caprate
[12] = substrates L-His and sodium caprate
[13] = substrates L-Ile and sodium caprate
[14] = substrates L-Leu and sodium caprate
[15] = substrates L-Lys and sodium caprate
[16] = substrates L-Met and sodium caprate
[17] = substrates L-Phe and sodium caprate
[18] = substrates L-Pro and sodium caprate
[19] = substrates L-Ser and sodium caprate
[20] = substrates L-Thr and sodium caprate
[21] = substrates L-Trp and sodium caprate
[22] = substrates L-Tyr and sodium caprate
[23] = substrates L-Val and sodium caprate
[24] = substrates β-Ala and sodium caprate
[25] = substrates Carnosine and sodium caprate
[26] = substrates D-Ala and sodium caprate
[27] = substrates D-Asp and sodium caprate
[28] = substrates D-Cys and sodium caprate
[29] = substrates D-Glu and sodium caprate
[30] = substrates D-Ile and sodium caprate
[31] = substrates D-Lys and sodium caprate
[32] = substrates L-Asp-L-Phe and sodium caprate
[33] = substrates L-Gly-L-Gly and sodium caprate
[34] = substrates Sarcosine and sodium caprate
[35] = substrates Taurine and sodium caprate

Molecule | signal of molecular weight corresponding to N-caprinoyl amino acid [1, 3] | signal of molecular weight corresponding to N-caprinoyl amino acid [1, 4] | signal of molecular weight corresponding to N-caprinoyl amino acid [1, 5] | signal of molecular weight corresponding to N-caprinoyl amino acid [1, 6] | signal of molecular weight corresponding to N-caprinoyl amino acid [1, 7] | signal of molecular weight corresponding to N-caprinoyl amino acid [1, 8] | signal of molecular weight corresponding to N-caprinoyl amino acid [1, 9] | signal of molecular weight corresponding to N-caprinoyl amino acid [1, 10] | signal of molecular weight corresponding to N-caprinoyl amino acid [1, 11] | signal of molecular weight corresponding to N-caprinoyl amino acid [1, 12] | signal of molecular weight corresponding to N-caprinoyl amino acid [1, 13] | signal of molecular weight corresponding to N-caprinoyl amino acid [1, 14] | signal of molecular weight corresponding to N-caprinoyl amino acid [1, 15] | signal of molecular weight corresponding to N-caprinoyl amino acid [1, 16] | signal of molecular weight corresponding to N-caprinoyl amino acid [1, 17] | signal of molecular weight corresponding to N-caprinoyl amino acid [1, 18] | signal of molecular weight corresponding to N-caprinoyl amino acid [1, 19] | signal of molecular weight corresponding to N-caprinoyl amino acid [1, 20] | signal of molecular weight corresponding to N-caprinoyl amino acid [1, 21] | signal of molecular weight corresponding to N-caprinoyl amino acid [1, 22] | other results
B1 | + | + | + | + | + | + | + | + | + | − | + | + | + | + | + | − | + | + | + | + | signal of molecular weight corresponding to N-caprinoyl amino acid [1, 23]: +; signal of molecular weight corresponding to N-caprinoyl amino acid [1, 24]: +; signal of molecular weight corresponding to N-caprinoyl compound [2, 25]: +; signal of molecular weight corresponding to N-caprinoyl compound [2, 26]: +; signal of molecular weight corresponding to N-caprinoyl compound [2, 27]: +; signal of molecular weight corresponding to N-caprinoyl compound [2, 28]: +; signal of molecular weight corresponding to N-caprinoyl compound [2, 29]: +; signal of molecular weight corresponding to N-caprinoyl compound [2, 30]: +; signal of molecular weight corresponding to N-caprinoyl compound [2, 31]: +; signal of molecular weight corresponding to N-caprinoyl compound [2, 32]: −; signal of molecular weight corresponding to N-caprinoyl compound [2, 33]: +; signal of molecular weight corresponding to N-caprinoyl compound [2, 34]: −; signal of molecular weight corresponding to N-caprinoyl compound [2, 35]: +
B2 | + | + | + | + | + | + | + | + | + | + | + | + | + | + | + | + | + | + | + | + | signal of molecular weight corresponding to N-caprinoyl amino acid [1, 23]: +; signal of molecular weight corresponding to N-caprinoyl amino acid [1, 24]: +; signal of molecular weight corresponding to N-caprinoyl compound [2, 25]: +; signal of molecular weight corresponding to N-caprinoyl compound [2, 26]: +; signal of molecular weight corresponding to N-caprinoyl compound [2, 27]: +; signal of molecular weight corresponding to N-caprinoyl compound [2, 28]: +; signal of molecular weight corresponding to N-caprinoyl compound [2, 29]: +; signal of molecular weight corresponding to N-caprinoyl compound [2, 30]: +; signal of molecular weight corresponding to N-caprinoyl compound [2, 31]: +; signal of molecular weight corresponding to N-caprinoyl compound [2, 32]: +; signal of molecular weight corresponding to N-caprinoyl compound [2, 33]: +; signal of molecular weight corresponding to N-caprinoyl compound [2, 34]: +; signal of molecular weight corresponding to N-caprinoyl compound [2, 35]: +
